From patent US20140286957A1 (Teva, published 2014)
Residue numbers refer to the chain shown, from its start. Names and notes keep the numbering of the source. Like-named read-outs stand apart in the source and are kept apart here.

Legend:
Human CD1d/β2M [1] = molecular target: T1, Human CD1d/β2M (human, UniProt P15813 20-301; P61769 21-119); assay: SPR, transfection supernatant
T1 construct: also called hCD1d; recombinant human CD1d

Human CD1d on cells [2] = molecular target: T2, Human CD1d on cells (human, UniProt P15813 20-335); assay: cell-based or functional assay
T2 sequence (looked up): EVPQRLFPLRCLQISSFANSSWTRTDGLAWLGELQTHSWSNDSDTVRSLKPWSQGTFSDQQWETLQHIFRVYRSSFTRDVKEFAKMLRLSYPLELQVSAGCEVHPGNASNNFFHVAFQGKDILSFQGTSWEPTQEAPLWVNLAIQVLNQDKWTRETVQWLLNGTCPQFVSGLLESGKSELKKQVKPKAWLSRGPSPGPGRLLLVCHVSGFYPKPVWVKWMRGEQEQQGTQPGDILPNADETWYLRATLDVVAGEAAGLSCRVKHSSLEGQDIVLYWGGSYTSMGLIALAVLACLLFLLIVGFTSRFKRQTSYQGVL

Human CD1d on cells [3] = molecular target: T2, Human CD1d on cells; assay: cell-based or functional assay; remark: listed apart in the source
Human CD1d/β2M [4] = molecular target: T1, Human CD1d/β2M; assay: SPR
Human CD1d on cells [5] = molecular target: T2, Human CD1d on cells; assay: cell-based or functional assay; remark: listed apart in the source
Human CD1d on cells [6] = molecular target: T2, Human CD1d on cells; assay: cell-based or functional assay; remark: listed apart in the source
Human CD1d on cells [7] = molecular target: T2, Human CD1d on cells; assay: cell-based or functional assay; remark: listed apart in the source

B1: 401.11.63 (antibody, name in Kabat numbering, V domains shown)
VH: QVQLVGSGGGLVKPGRSLRLSCAASGFTFDDYAMHWVRQAPGKGLEWVATIIWNSAIIGYADSVKGRFIVSRDNAKNSLYLQMNSLRAEDMALYYCAKDMCLSSGCPDGYFDSWGQGTLVTVSS
VL: DIQMTQSPSSVSASVGDRVTITCRASQHISSWLAWYQQKPGKAPNLLIYAASSLQSGVSSRFSGSGSGTDFTLTISSLQPEDFATYYCQQANRFPLTFGGGTKLEIKR
Human CD1d/β2M [1]
  Kd: 0.189 nM

B2: 401.11.181 (antibody, IgG4, V domains shown)
VH: B1 VH with G6E, M91T, L102S, S104G
VL: B1 VL with N45K, S59P
Human CD1d on cells [2]
  NKT IFN-γ EC50 (THP-1): 3.25 ng/mL
  NKT IFN-γ EC50 (moDC): 2.63 ng/mL
  NKT IL-4 EC50 (THP-1): 3.19 ng/mL
  NKT IL-4 EC50 (moDC): 1.1 ng/mL
  NKT IL-13 EC50 (THP-1): 5.04 ng/mL

B3: 401.11.180 (antibody, IgG4, V domains shown)
VH: B1 VH with M91T, M100L, L102S, S104G, D108E
VL: B1 VL with N45K, S59P
Human CD1d on cells [3]
  NKT IFN-γ EC50 (moDC): 49.5 ng/mL
  NKT IL-4 EC50 (moDC): 1.31 ng/mL
  NKT IL-5 EC50 (moDC): 3.35 ng/mL
  NKT IL-13 EC50 (moDC): 4.09 ng/mL

B4: 401.11.165 (antibody, IgG4, V domains shown)
VH: B1 VH with Q1E, G6E, K13Q, M91T, L102S, S104G
VL: B1 VL with N45K, S59P
notes: IgG4 (S228P)
Human CD1d/β2M [4]
  Kd: 0.168 nM
Human CD1d on cells [5]
  NKT IFN-γ EC50 (THP-1): 6.15 ng/mL
  NKT IL-4 EC50 (THP-1): 1.11 ng/mL
  NKT IL-5 EC50 (THP-1): 3.73 ng/mL
  NKT IL-13 EC50 (THP-1): 5.76 ng/mL
  NKT TNF EC50 (THP-1): 3.04 ng/mL

B5: 401.11.80 (antibody, name in Kabat numbering, V domains shown)
VH: B1 VH with L102S, S104W
VL: B1 VL
Human CD1d/β2M [1]
  Kd: 2.34 nM

B6: 401.11.83 (antibody, name in Kabat numbering, V domains shown)
VH: B1 VH with L102S, S104K
VL: B1 VL
Human CD1d/β2M [1]
  Kd: 1.55 nM

B7: 401.11.81 (antibody, name in Kabat numbering, V domains shown)
VH: B1 VH with L102S, S104L
VL: B1 VL
Human CD1d/β2M [1]
  Kd: 0.552 nM

B8: 401.11.72 (antibody, name in Kabat numbering, V domains shown)
VH: B1 VH with L102S, S103L
VL: B1 VL
Human CD1d/β2M [1]
  Kd: 0.649 nM

B9: 401.11.67 (antibody, name in Kabat numbering, V domains shown)
VH: B1 VH with L102Y
VL: B1 VL
Human CD1d/β2M [1]
  Kd: 0.0485 nM

B10: 401.11.74 (antibody, name in Kabat numbering, V domains shown)
VH: B1 VH with L102S, S103K
VL: B1 VL
Human CD1d/β2M [1]
  Kd: 0.0933 nM

B11: 401.11.73 (antibody, name in Kabat numbering, V domains shown)
VH: B1 VH with L102S, S103V
VL: B1 VL
Human CD1d/β2M [1]
  Kd: 0.527 nM

B12: 401.11.166 (antibody, IgG4, V domains shown)
VH: B1 VH with Q1E, G6E, K13Q, M91T, L102S, S104G
VL: B1 VL with N45K
notes: IgG4 (S228P)
Human CD1d/β2M [4]
  Kd: 0.173 nM
Human CD1d on cells [5]
  NKT IFN-γ EC50 (THP-1): 6.98 ng/mL
  NKT IL-4 EC50 (THP-1): 2.75 ng/mL
  NKT IL-5 EC50 (THP-1): 5.38 ng/mL
  NKT IL-13 EC50 (THP-1): 7.25 ng/mL
  NKT TNF EC50 (THP-1): 4.02 ng/mL

B13: 401.11.79 (antibody, name in Kabat numbering, V domains shown)
VH: B1 VH with L102S, S104T
VL: B1 VL
Human CD1d/β2M [1]
  binding result: no binding

B14: 401.11.151 (antibody, IgG4, V domains shown)
VH: B1 VH with Q1E, G6E, K13Q, M91T, L102S
VL: B1 VL with N45K, S59P
Human CD1d on cells [6]
  NKT IL-4 EC50 (moDC): 12.9 ng/mL
  NKT IL-13 EC50 (moDC): 57.5 ng/mL

B15: 401.11.70 (antibody, name in Kabat numbering, V domains shown)
VH: B1 VH with L102S, S103T
VL: B1 VL
Human CD1d/β2M [1]
  Kd: 0.549 nM

B16: 401.11.75 (antibody, name in Kabat numbering, V domains shown)
VH: B1 VH with L102S, S103R
VL: B1 VL
Human CD1d/β2M [1]
  binding result: no binding

B17: 401.11.179 (antibody, IgG4, V domains shown)
VH: B1 VH with M91T, L102S, S104G, D108E
VL: B1 VL with N45K, S59P
notes: IgG4 (S228P)
Human CD1d/β2M [4]
  Kd: 0.274 nM
Human CD1d on cells [3]
  NKT IFN-γ EC50 (moDC): 30.2 ng/mL
  NKT IL-4 EC50 (moDC): 0.73 ng/mL
  NKT IL-5 EC50 (moDC): 2.1 ng/mL
  NKT IL-13 EC50 (moDC): 2.43 ng/mL

B18: 401.11.69 (antibody, name in Kabat numbering, V domains shown)
VH: B1 VH with L102S, S103D
VL: B1 VL
Human CD1d/β2M [1]
  Kd: 0.144 nM

B19: 401.11.82 (antibody, name in Kabat numbering, V domains shown)
VH: B1 VH with L102S, S104V
VL: B1 VL
Human CD1d/β2M [1]
  binding result: no binding

B20: 401.11.64 (antibody, name in Kabat numbering, V domains shown)
VH: B1 VH with L102V
VL: B1 VL
Human CD1d/β2M [1]
  Kd: 0.23 nM

B21: 401.11.167 (antibody, IgG4, V domains shown)
VH: B1 VH with Q1E, G6E, K13Q, M91T, L102S, S104G
VL: B1 VL with S59P
notes: IgG4 (S228P)
Human CD1d/β2M [4]
  Kd: 0.17 nM
Human CD1d on cells [5]
  NKT IFN-γ EC50 (THP-1): 6.51 ng/mL
  NKT IL-4 EC50 (THP-1): 2.89 ng/mL
  NKT IL-5 EC50 (THP-1): 4.98 ng/mL
  NKT IL-13 EC50 (THP-1): 7.46 ng/mL
  NKT TNF EC50 (THP-1): 4 ng/mL

B22: 401.11.68 (antibody, name in Kabat numbering, V domains shown)
VH: B1 VH with L102G
VL: B1 VL
Human CD1d/β2M [1]
  Kd: 1.17 nM

B23: 401.11.71 (antibody, name in Kabat numbering, V domains shown)
VH: B1 VH with L102S, S103W
VL: B1 VL
Human CD1d/β2M [1]
  Kd: < 0.01 nM

B24: 401.11.84 (antibody, name in Kabat numbering, V domains shown)
VH: B1 VH with L102S, S104R
VL: B1 VL
Human CD1d/β2M [1]
  Kd: 1.12 nM

B25: 401.11.66 (antibody, name in Kabat numbering, V domains shown)
VH: B1 VH with L102R
VL: B1 VL
Human CD1d/β2M [1]
  Kd: 0.156 nM

B26: 401.11.77 (antibody, name in Kabat numbering, V domains shown)
VH: B1 VH with L102S, S103G
VL: B1 VL
Human CD1d/β2M [1]
  Kd: 0.272 nM

B27: 401.11.85 (antibody, name in Kabat numbering, V domains shown)
VH: B1 VH with L102S, S104Y
VL: B1 VL
Human CD1d/β2M [1]
  Kd: 82.3 nM

B28: 401.11.159 (antibody, IgG4, V domains shown)
VH: B1 VH with Q1E, G6E, K13Q, L102S, S104G
VL: B1 VL with N45K
Human CD1d on cells [6]
  NKT IL-4 EC50 (moDC): 1.69 ng/mL
  NKT IL-13 EC50 (moDC): 10.5 ng/mL

B29: 401.11.65 (antibody, name in Kabat numbering, V domains shown)
VH: B1 VH with L102K
VL: B1 VL
Human CD1d/β2M [1]
  Kd: 1.67 nM

B30: 402.8.54 (antibody, IgG4, V domains shown)
VH: QVQLQESGPGLVKPSETLSLTCAVYGGSFSGYYWSWIRQPPGKGLEWIGEINHAGSTNYNPSLKSRVTISVDTSKNQFSLKLSSVTAADTAVYYCARGEIYDFWKSYMEVWGKGTTVTVSS
VL: QTVVTQEPSLTVSPGGTVTLTCASSSGAVSSGNFPNWFQQKPGQAPRALIFSASNKHSWTPARFSGSLLGGKAVLTLSGVQPEDEAEYYCLLYFGDTQLGVFGGGTKVTVL
Human CD1d on cells [7]
  NKT IFN-γ EC50 (moDC): 138 ng/mL
  NKT IL-4 EC50 (moDC): 109 ng/mL

B31: 402.8.55 (antibody, IgG4, V domains shown)
VH: B30 VH with M108L
VL: B30 VL
Human CD1d on cells [7]
  NKT IFN-γ EC50 (moDC): 445 ng/mL
  NKT IL-4 EC50 (moDC): 175 ng/mL
